Test results as given in paper PMC8262854.
Like-named read-outs stand apart in the source and are kept apart here.

Key:
[1] = biological target: Du172.17 gp140.664.R4 Env trimer (HIV-1 Du172.17 (clade C)); assay: crystal structure

In the case of “BG505.T332N Env (pseudovirus glycan hole mutant P291T): P291T (glycan site added at N289)”, the other (N-glycosylation at N289) is reported as “decreases”.
For “BG505.T332N Env (pseudovirus glycan hole mutant S241N): S241N (glycan site added)”, the other (N-glycosylation at N241) was “decreases”.
With “BG505.T332N Env (pseudovirus glycan hole mutant T465N): T465N (glycan site added)” the other (N-glycosylation at N465) was “decreases”.
Substance “Du172.17 gp140.664.R4 Env trimer (complex)” has a stoichiometry N [1] of 3.
